Laboratory results from patent publication US20260216242A1 (ALMAC DISCOVERY, published 2026).

T1: human ALPL (tissue non-specific alkaline phosphatase) expressed on the surface of CHO cells (human, UniProt P05186 18-501)
T1 construct: whole, on cells; The cell-surface form has none; also called CHO-ALPL; hALPL
T1 sequence (looked up): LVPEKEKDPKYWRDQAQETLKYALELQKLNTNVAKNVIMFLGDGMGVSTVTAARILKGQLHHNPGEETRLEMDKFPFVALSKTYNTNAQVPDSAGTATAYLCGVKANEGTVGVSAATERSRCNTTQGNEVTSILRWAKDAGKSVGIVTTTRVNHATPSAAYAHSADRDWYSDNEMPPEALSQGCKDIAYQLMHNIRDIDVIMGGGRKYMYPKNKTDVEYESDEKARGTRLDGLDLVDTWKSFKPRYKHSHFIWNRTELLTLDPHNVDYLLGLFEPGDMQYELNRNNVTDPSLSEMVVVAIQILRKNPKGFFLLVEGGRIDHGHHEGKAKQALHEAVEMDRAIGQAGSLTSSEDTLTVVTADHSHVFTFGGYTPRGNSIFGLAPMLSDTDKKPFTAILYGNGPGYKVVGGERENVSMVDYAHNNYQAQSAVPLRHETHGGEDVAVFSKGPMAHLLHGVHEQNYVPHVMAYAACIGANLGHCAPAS

T2: human ALPI (intestinal alkaline phosphatase) expressed on the surface of CHO cells (human, UniProt P09923 20-503)
T2 construct: whole, on cells; The cell-surface form has none; also called CHO-ALPI; hALPI
T2 sequence (looked up): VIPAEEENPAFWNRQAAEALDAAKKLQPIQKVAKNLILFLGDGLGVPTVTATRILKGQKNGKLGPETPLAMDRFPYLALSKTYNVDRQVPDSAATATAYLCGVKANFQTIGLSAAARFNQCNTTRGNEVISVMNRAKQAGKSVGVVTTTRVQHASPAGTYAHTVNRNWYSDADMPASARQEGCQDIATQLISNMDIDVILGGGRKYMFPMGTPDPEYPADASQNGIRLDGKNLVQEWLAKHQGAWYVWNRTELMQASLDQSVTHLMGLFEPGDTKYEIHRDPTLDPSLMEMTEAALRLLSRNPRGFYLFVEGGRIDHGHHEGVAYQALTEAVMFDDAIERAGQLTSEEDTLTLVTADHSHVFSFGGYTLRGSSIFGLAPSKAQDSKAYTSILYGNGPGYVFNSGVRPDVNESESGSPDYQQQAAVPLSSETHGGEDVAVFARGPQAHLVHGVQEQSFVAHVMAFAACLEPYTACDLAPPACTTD


Tests used:
[1] = biological target: T3, human ALPP (alkaline phosphatase, placental type) expressed on the surface of CHO cells (human, UniProt P05187 23-506); experiment: flow cytometry on CHO-ALPP cells, apparent KD (KDapp)
T3 construct: also called CHO-ALPP; hALPP
T3 sequence (P05187 23-506 limits assumed): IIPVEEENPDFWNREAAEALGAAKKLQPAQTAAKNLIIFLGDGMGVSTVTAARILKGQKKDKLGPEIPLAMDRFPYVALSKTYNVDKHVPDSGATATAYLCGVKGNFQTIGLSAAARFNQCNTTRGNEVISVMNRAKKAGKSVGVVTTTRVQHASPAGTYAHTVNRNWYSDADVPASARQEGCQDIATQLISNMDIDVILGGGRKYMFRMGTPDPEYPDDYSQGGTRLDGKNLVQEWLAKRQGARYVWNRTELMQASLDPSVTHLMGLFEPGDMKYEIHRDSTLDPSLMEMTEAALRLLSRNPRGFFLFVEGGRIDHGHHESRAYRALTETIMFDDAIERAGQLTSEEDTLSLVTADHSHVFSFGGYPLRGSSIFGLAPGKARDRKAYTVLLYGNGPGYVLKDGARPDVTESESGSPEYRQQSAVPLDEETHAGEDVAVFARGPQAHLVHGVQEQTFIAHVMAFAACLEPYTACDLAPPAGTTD
Procedure, shortened: (§1)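 Cell-surface binding to CHO cells stably transfected with human ALPP, ALPPL2, ALPI or ALPL; cells detached with 0.1% EDTA/PBS, incubated with biparatopic VHH-hFc drug conjugates over a concentration range for 1 hr on ice. Bound agent detected with FITC anti-human Ab (30 min, ice, dark) by flow cytometry; KDapp derived from binding.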

[2] = biological target: T1, human ALPL (tissue non-specific …); experiment: flow cytometry, CHO-ALPL cells
[3] = biological target: T2, human ALPI (intestinal alkaline …); experiment: flow cytometry on CHO-ALPI cells
[4] = biological target: T4, human ALPPL2 (alkaline phosphatase, germ cell type) expressed on the surface of CHO cells (human, UniProt P10696 20-503); experiment: flow cytometry on CHO-ALPPL2 cells, apparent KD (KDapp)
T4 construct: whole, on cells; The cell-surface form has none; also called CHO-ALPPL2; hALPPL2
T4 sequence (P10696 20-503): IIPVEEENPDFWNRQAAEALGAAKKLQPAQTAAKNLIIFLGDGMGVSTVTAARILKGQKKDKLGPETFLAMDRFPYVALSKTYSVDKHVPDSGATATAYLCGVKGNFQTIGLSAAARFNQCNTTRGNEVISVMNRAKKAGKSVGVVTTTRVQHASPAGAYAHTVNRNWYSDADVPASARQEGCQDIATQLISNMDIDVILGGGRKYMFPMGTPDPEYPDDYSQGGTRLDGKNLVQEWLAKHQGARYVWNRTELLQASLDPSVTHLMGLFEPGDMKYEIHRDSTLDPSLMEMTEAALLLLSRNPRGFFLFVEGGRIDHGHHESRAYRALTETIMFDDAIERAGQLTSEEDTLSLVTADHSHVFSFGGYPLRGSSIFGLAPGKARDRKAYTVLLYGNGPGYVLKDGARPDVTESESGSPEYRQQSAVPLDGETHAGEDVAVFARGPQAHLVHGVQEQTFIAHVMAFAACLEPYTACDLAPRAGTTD
Procedure, shortened: as §1

[5] = biological target: T2, human ALPI (intestinal alkaline …); experiment: cell-based or functional assay
[6] = biological target: T3, human ALPP (alkaline phosphatase, …); experiment: cell-based or functional assay
[7] = biological target: T1, human ALPL (tissue non-specific …); experiment: cell-based or functional assay
[8] = biological target: T2, human ALPI (intestinal alkaline …); experiment: flow cytometry, CHO-ALPI cells
[9] = biological target: T4, human ALPPL2 (alkaline phosphatase, …); experiment: cell-based or functional assay

Row | Binder | Kd [1] | MFI on CHO-ALPI cells at 350 nM as percent of MFI on CHO-ALPP cells (KDapp not-determinable) [3] | Kd [4] | binding result [2] | IC50 at 96 h, cell-killing of CHO-ALPI cells [5] | IC50 at 96 h, cell-killing of CHO-ALPP cells [6] | IC50 at 96 h, cell-killing of CHO-ALPL cells [7] | binding result [8] | IC50 at 96 h, cell-killing of CHO-ALPI cells (estimated from data extrapolation) [5] | IC50 at 96 h, cell-killing of CHO-ALPPL2 cells [9]
1 | D10 A06-hFc (S239/442C T366Y/Y407T), [G4S]1 linker, MC-vc-PAB-MMAE conjugate, #676 (Fc fusion, DAR 4, MC-vc-PAB-MMAE on Cys of S239C and S442C (EU numbering), Biparatopic knob-into-hole VHH-hFc heterodimer, DAR 4; The assignment of T366Y to the first named VHH and Y407T to the second follows the order of the name; No paragraph spells out this pair; also called D10-A06-hFc-vcPAB-MMAE; D10-A06 hFc-vc-MMAE) chain 1: QVQLVESGGGLVQPGGSLRLSCAASGSIFSVNTMGWYRQAPGKQRDLVAVATSGGTIHYADSVKGRFTISRDNAKNTVYLQMNSLKPEDTAVYYCNLVVPYGMIAGDHDYWGQGTKVTVSSGGGGSEPKSSDKTHTCPPCPAPELLGGPCVFLFPPKPKDTLMISRTPEVTCVVVDVSHEDPEVKFNWYVDGVEVHNAKTKPREEQYNSTYRVVSVLTVLHQDWLNGKEYKCKVSNKALPAPIEKTISKAKGQPREPQVYTLPPSRDELTKNQVSLYCLVKGFYPSDIAVEWESNGQPENNYKTTPPVLDSDGSFFLYSKLTVDKSRWQQGNVFSCSVMHEALHNHYTQKSLCLSPGK chain 2: QVHLVESGGGLVQAGGSLRLSCAASGRTFLSMGWFRQAPGKEREFVAAISWTGGSTGYADSVKGRFTISRESDKETMYLQMNSLKPEDTAVYYCAARGDVYYGGDDATRYKYWGQGTQVTVSSGGGGSEPKSSDKTHTCPPCPAPELLGGPCVFLFPPKPKDTLMISRTPEVTCVVVDVSHEDPEVKFNWYVDGVEVHNAKTKPREEQYNSTYRVVSVLTVLHQDWLNGKEYKCKVSNKALPAPIEKTISKAKGQPREPQVYTLPPSRDELTKNQVSLTCLVKGFYPSDIAVEWESNGQPENNYKTTPPVLDSDGSFFLTSKLTVDKSRWQQGNVFSCSVMHEALHNHYTQKSLCLSPGK | 14.4 nM | ≤ 1% | 5 nM | no binding (tested: 350 nM (highest concentration)) | > 1000 nM | 5 nM | > 1000 nM |  |  | 
2 | D10 E10-hFc (S239/442C T366Y/Y407T), [G4S]1 linker, MC-vc-PAB-MMAE conjugate, #678 (Fc fusion, DAR 4, MC-vc-PAB-MMAE on Cys of S239C and S442C (EU numbering), Biparatopic knob-into-hole VHH-hFc heterodimer, DAR 4; also called D10-E10-hFc-vcPAB-MMAE; D10-E10 hFc-vc-MMAE) chain 1: QVQLVESGGGLVQPGGSLRLSCAASGSIFSVNTMGWYRQAPGKQRDLVAVATSGGTIHYADSVKGRFTISRDNAKNTVYLQMNSLKPEDTAVYYCNLVVPYGMIAGDHDYWGQGTKVTVSSGGGGSEPKSSDKTHTCPPCPAPELLGGPCVFLFPPKPKDTLMISRTPEVTCVVVDVSHEDPEVKFNWYVDGVEVHNAKTKPREEQYNSTYRVVSVLTVLHQDWLNGKEYKCKVSNKALPAPIEKTISKAKGQPREPQVYTLPPSRDELTKNQVSLYCLVKGFYPSDIAVEWESNGQPENNYKTTPPVLDSDGSFFLYSKLTVDKSRWQQGNVFSCSVMHEALHNHYTQKSLCLSPGK chain 2: QVQLVESGGGLVQAGGSLRLSCAVSGRALSDYNIGWFRQAPGKEREFVARKTWDGSSTRYDDSVKGRFTVSIEDAKNTAYLQMSSLKTEDTAVYYCAAGRYSRARGWEYDYWGQGTQVTVSSGGGGSEPKSSDKTHTCPPCPAPELLGGPCVFLFPPKPKDTLMISRTPEVTCVVVDVSHEDPEVKFNWYVDGVEVHNAKTKPREEQYNSTYRVVSVLTVLHQDWLNGKEYKCKVSNKALPAPIEKTISKAKGQPREPQVYTLPPSRDELTKNQVSLTCLVKGFYPSDIAVEWESNGQPENNYKTTPPVLDSDGSFFLTSKLTVDKSRWQQGNVFSCSVMHEALHNHYTQKSLCLSPGK | 6.9 nM |  | 5 nM | no binding (tested: 350 nM (highest concentration)) |  |  | > 1000 nM | no binding (tested: 350 nM (highest concentration)) | ~972 nM | 12.8 nM

Continued by falling Kd [1], values first:

Row | Kd [1] | MFI on CHO-ALPI cells at 350 nM as percent of MFI on CHO-ALPP cells (KDapp not-determinable) [3] | Kd [4] | Binder | binding result [2] | IC50 at 96 h, cell-killing of CHO-ALPI cells [5] | IC50 at 96 h, cell-killing of CHO-ALPP cells [6] | IC50 at 96 h, cell-killing of CHO-ALPL cells [7] | binding result [8] | IC50 at 96 h, cell-killing of CHO-ALPI cells (estimated from data extrapolation) [5] | IC50 at 96 h, cell-killing of CHO-ALPPL2 cells [9]
3 | 7.6 nM | ≤ 1% | 4.4 nM | D10 A06-hFc (S239/442C T366Y/Y407T), [G4S]3 linker, MC-vc-PAB-MMAE conjugate, #633 (Fc fusion, DAR 4, MC-vc-PAB-MMAE on Cys of S239C and S442C (EU numbering), Biparatopic knob-into-hole VHH-hFc heterodimer, DAR 4; The assignment of T366Y to the first named VHH and Y407T to the second follows the order of the name; No paragraph spells out this pair; also called D10-A06 hFc-vcPAB-MMAE; D10-A06-hFc-vc-MMAE) chain 1: QVQLVESGGGLVQPGGSLRLSCAASGSIFSVNTMGWYRQAPGKQRDLVAVATSGGTIHYADSVKGRFTISRDNAKNTVYLQMNSLKPEDTAVYYCNLVVPYGMIAGDHDYWGQGTKVTVSSGGGGSGGGGSGGGGSEPKSSDKTHTCPPCPAPELLGGPCVFLFPPKPKDTLMISRTPEVTCVVVDVSHEDPEVKFNWYVDGVEVHNAKTKPREEQYNSTYRVVSVLTVLHQDWLNGKEYKCKVSNKALPAPIEKTISKAKGQPREPQVYTLPPSRDELTKNQVSLYCLVKGFYPSDIAVEWESNGQPENNYKTTPPVLDSDGSFFLYSKLTVDKSRWQQGNVFSCSVMHEALHNHYTQKSLCLSPGK chain 2: QVHLVESGGGLVQAGGSLRLSCAASGRTFLSMGWFRQAPGKEREFVAAISWTGGSTGYADSVKGRFTISRESDKETMYLQMNSLKPEDTAVYYCAARGDVYYGGDDATRYKYWGQGTQVTVSSGGGGSGGGGSGGGGSEPKSSDKTHTCPPCPAPELLGGPCVFLFPPKPKDTLMISRTPEVTCVVVDVSHEDPEVKFNWYVDGVEVHNAKTKPREEQYNSTYRVVSVLTVLHQDWLNGKEYKCKVSNKALPAPIEKTISKAKGQPREPQVYTLPPSRDELTKNQVSLTCLVKGFYPSDIAVEWESNGQPENNYKTTPPVLDSDGSFFLTSKLTVDKSRWQQGNVFSCSVMHEALHNHYTQKSLCLSPGK | no binding (tested: 350 nM (highest concentration)) | > 1000 nM | 10.1 nM | > 1000 nM |  |  | 
4 | 6.6 nM |  | 5.2 nM | D10 F05-hFc (S239/442C T366Y/Y407T), [G4S]1 linker, MC-vc-PAB-MMAE conjugate, #679 (Fc fusion, DAR 4, MC-vc-PAB-MMAE on Cys of S239C and S442C (EU numbering), Biparatopic knob-into-hole VHH-hFc heterodimer, DAR 4; also called D10-F05-hFc-vcPAB-MMAE; D10-F05 hFc-vc-MMAE) chain 1: QVQLVESGGGLVQPGGSLRLSCAASGSIFSVNTMGWYRQAPGKQRDLVAVATSGGTIHYADSVKGRFTISRDNAKNTVYLQMNSLKPEDTAVYYCNLVVPYGMIAGDHDYWGQGTKVTVSSGGGGSEPKSSDKTHTCPPCPAPELLGGPCVFLFPPKPKDTLMISRTPEVTCVVVDVSHEDPEVKFNWYVDGVEVHNAKTKPREEQYNSTYRVVSVLTVLHQDWLNGKEYKCKVSNKALPAPIEKTISKAKGQPREPQVYTLPPSRDELTKNQVSLYCLVKGFYPSDIAVEWESNGQPENNYKTTPPVLDSDGSFFLYSKLTVDKSRWQQGNVFSCSVMHEALHNHYTQKSLCLSPGK chain 2: QVQLVESGGGLVQAGGSLRLSCAASGRAFGDYNIGWFRQAPGKEREFVARRTWDGSSTRYDDSVKGRFTVSIDNAKNTAYLQMNSLKTEDTAVYYCAAGRYSRVRGWEYDYWGQGTQVTVSSGGGGSEPKSSDKTHTCPPCPAPELLGGPCVFLFPPKPKDTLMISRTPEVTCVVVDVSHEDPEVKFNWYVDGVEVHNAKTKPREEQYNSTYRVVSVLTVLHQDWLNGKEYKCKVSNKALPAPIEKTISKAKGQPREPQVYTLPPSRDELTKNQVSLTCLVKGFYPSDIAVEWESNGQPENNYKTTPPVLDSDGSFFLTSKLTVDKSRWQQGNVFSCSVMHEALHNHYTQKSLCLSPGK | no binding (tested: 350 nM (highest concentration)) | > 1000 nM |  | > 1000 nM | no binding (tested: 350 nM (highest concentration)) |  | 16.1 nM
